Results taken from the supplement of paper PMC10567573.
± gives the standard deviation.

Assay: protein stability index of a GFP-peptide fusion (GPS, HEK-293T) (PSI 1-6); higher = more stable
Conditions: c terminus: a fixed tail appended
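Further: 24-mer peptide tiles fused after GFP, lentivirally expressed, FACS-sorted into six equal bins by GFP/DsRed ratio, decoded by Illumina sequencing, PSI is the read-weighted mean bin number.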

| Sequence | protein stability index (treatment: DMSO) | protein stability index (treatment: MLN4924 1 uM, 8 h) |
| --- | --- | --- |
| PGSILYSSSGDLADLENEDIFPEL [DLC1] | 4.69 ± 0.14 | 4.77 ± 0.32 |
| DTCPEVGFFDVLGNDRRREWAALG [ACBD3] | 3.09 ± 0.4 | 3.76 ± 0.14 |
| QQLKEFDGKSLVSVTKEGLELPED [HSP90AB1] | 5.29 ± 0.42 | 5.3 ± 0.44 |
| LFAPTLIYRDSYPRNPTVRWGYVA [SOAT1] | 2.44 ± 0.55 | 2.06 ± 0.35 |
| LTASTMEILLDFVYTETVHVTVEN [KLHL12] | 2.9 ± 0.79 | 3.29 ± 1.4 |
| STQTKKLSASSPRMLHRSTQTTND [ZMYND11] | 4.71 ± 0.54 | 5.15 ± 0.17 |
| RKDLAKLHREVRSTPLTATPGGRG [VTI1B] | 4.38 ± 0.17 | 4.45 ± 0.17 |
| LGKMLIGLAGYLSGYDGTFLFQKP [POMT2] | 2.65 ± 0.86 | 2.45 ± 0.79 |
| ICTRKPEEIRGGGLLKYCSLLVHG [TENT5D] | 2.24 ± 0.43 | 2.03 ± 0.3 |
| EQQTMDNLEKQLICPICLEMFTKP [TRIM55] | 3.77 ± 0.38 | 4.14 ± 0.38 |
| RMLIHKTEDVNTLDSEKRTPLHVA [ANKRD44] | 4.06 ± 0.22 | 4.15 ± 0.39 |
| ACGDAFTVAIGAESEVYSWGKGAR [NEK8] | 2.84 ± 0.23 | 2.77 ± 0.3 |
| YPEQSKGFHKAGSMLPPVNFSIVP [SPATS1] | 2.65 ± 0.5 | 3.06 ± 0.69 |
| TGFIFQKVGKLAATAVGGGFFLLQ [FUNDC2] | 2.36 ± 0.21 | 2.09 ± 0.51 |
| TGMWWRHLVAGGGAGAVSRTCTAP [SLC25A25] | 2.32 ± 0.25 | 2.48 ± 0.42 |
| EIDTPDKFGRTCLHAAAAGGNVEC [ANKRD44] | 4.24 ± 0.16 | 4.37 ± 0.23 |
| LYIQSHYQLELQCCIDWTHVTDPL [SMG5] | 3.31 ± 0.46 | 3.06 ± 0.42 |

| Sequence | protein stability index (treatment: DMSO) | protein stability index (treatment: MLN4924 1 uM, 8 h) |
| --- | --- | --- |
| SHSASATGNVCIEEIDVDGKFIRL [LMNB1] | 3.14 ± 0.22 | 3.48 ± 0.23 |
| IVPNSNGVITTTPTPPGQYFYPRG [JUNB] | 3.16 ± 0.27 | 3.35 ± 0.2 |
| VPVHSFASLNIKTTVPEVEPPQDS [PRPH] | 4.97 ± 0.2 | 4.99 ± 0.073 |
| LLRHQRIHTGERPYKCPECGKSFS [ZNF263] | 2.71 ± 0.47 | 3.58 ± 0.47 |
| GTLGSCSSSSECLEDSTMGSVADT [PLK2] | 5.36 ± 0.11 | 5.28 ± 0.15 |
| LPECLEYEEEFDYETESETESEIE [GNAS] | 5.3 ± 0.15 | 5.26 ± 0.23 |
| ADGSLRMDDPKGDFITLYQMASQS [M1AP] | 3.58 ± 0.083 | 3.53 ± 0.15 |
| QQGEYSEAIPILRAALKLEPSNKT [FKBP8] | 4.12 ± 0.19 | 4.14 ± 0.11 |
| PASQAASSSSASADLLAGFGGSFM [SNAP91] | 3.89 ± 0.24 | 3.73 ± 0.12 |
| NSEVYLPNINKISMQAVLDYLYTK [RHOBTB1] | 2.17 ± 0.29 | 2.35 ± 0.16 |
| MECQPESSISHRFHKDCASRVNNA [EHMT1] | 4.28 ± 0.38 | 4.15 ± 0.39 |
| DRLRINRFAWPKVLKISYKRNNFY [EPB41L3] | 1.81 ± 0.57 | 1.69 ± 0.4 |
| ESYTKMCDPGMTAFEPEALGNLVE [CAMK2A] | 4.1 ± 0.31 | 4.16 ± 0.33 |
| GLRRLGLHRTEGELQKIVQAGDKD [SLC25A25] | 4.45 ± 0.12 | 4.82 ± 0.52 |
| ERPQDRDTPVQNKRRRSVTPPEEQ [CDC25B] | 5.34 ± 0.18 | 5.32 ± 0.23 |
| ECLPENLGGYVKIDLATWNFQFLP [PTPN9] | 2.36 ± 0.33 | 2.21 ± 0.38 |
